Biological target: T1, plcg1_human PLCG1 (UniProt P19174)
T1 sequence: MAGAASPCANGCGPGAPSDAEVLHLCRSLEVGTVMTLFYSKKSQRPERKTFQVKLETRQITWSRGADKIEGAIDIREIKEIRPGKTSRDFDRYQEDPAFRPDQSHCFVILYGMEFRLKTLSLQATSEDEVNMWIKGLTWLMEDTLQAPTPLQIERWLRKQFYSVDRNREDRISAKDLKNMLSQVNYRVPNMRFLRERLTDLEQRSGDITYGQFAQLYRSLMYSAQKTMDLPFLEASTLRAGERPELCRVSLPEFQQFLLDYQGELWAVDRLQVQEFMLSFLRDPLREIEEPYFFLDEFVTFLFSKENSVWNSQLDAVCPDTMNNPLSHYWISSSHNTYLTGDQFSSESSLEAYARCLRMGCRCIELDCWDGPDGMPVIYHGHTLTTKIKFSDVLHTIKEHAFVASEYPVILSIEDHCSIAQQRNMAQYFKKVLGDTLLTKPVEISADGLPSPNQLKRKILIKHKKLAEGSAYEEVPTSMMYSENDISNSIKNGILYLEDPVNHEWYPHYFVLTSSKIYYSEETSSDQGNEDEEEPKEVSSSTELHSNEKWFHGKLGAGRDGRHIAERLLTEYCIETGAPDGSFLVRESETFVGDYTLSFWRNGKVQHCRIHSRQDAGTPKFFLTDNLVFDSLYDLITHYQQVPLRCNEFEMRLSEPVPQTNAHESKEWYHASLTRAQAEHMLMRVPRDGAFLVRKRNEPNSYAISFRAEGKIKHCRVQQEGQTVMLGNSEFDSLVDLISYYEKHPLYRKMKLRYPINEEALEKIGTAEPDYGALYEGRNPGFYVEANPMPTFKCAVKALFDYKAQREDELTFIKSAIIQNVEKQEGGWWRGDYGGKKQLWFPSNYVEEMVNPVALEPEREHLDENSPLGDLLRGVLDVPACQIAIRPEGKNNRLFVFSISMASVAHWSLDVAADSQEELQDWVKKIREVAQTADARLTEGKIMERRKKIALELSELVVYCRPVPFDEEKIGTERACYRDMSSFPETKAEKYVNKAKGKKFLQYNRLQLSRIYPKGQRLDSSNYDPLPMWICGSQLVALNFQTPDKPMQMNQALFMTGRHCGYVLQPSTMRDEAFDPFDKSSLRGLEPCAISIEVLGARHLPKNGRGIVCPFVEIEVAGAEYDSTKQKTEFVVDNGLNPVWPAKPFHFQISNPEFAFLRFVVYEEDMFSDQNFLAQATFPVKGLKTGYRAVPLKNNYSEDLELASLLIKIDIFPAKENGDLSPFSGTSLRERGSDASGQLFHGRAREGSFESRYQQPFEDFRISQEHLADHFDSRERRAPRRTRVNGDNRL

Substance	effect of a mutation on the interaction
Ras-related C3 botulinum toxin substrate 1 (Homo sapiens) (from UniProt P63000) P106A	disrupting interaction
Ras-related C3 botulinum toxin substrate 1 (Homo sapiens) (from UniProt P63000) P109A	disrupting interaction

— IntAct's records for PubMed 19264842
